B1: GpH7-B3 variant P271_10E/GpL16-k0 (antibody, human IgG1, kappa)
heavy: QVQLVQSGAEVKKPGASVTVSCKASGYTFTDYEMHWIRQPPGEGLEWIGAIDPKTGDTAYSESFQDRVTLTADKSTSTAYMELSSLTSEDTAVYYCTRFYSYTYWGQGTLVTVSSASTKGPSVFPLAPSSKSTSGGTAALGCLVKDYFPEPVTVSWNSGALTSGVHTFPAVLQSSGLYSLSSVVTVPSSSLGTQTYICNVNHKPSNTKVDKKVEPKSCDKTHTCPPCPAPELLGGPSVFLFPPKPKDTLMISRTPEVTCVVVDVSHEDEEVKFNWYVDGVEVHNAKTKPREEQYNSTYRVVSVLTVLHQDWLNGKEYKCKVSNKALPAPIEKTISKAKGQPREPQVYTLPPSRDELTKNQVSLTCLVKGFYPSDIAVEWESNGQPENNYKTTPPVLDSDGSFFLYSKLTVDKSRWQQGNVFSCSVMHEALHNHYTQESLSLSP
light: DIVMTQSPLSLPVTPGEPASISCQASESLVHSNRNTYLHWYLQKPGQSPQLLIYKVSNRFSGVPDRFSGSGSGTDFTLKISRVEAEDVGVYYCSQNTHVPPTFGQGTKVEIERTVAAPSVFIFPPSDEQLKSGTASVVCLLNNFYPREAKVQWKVDNALQSGNSQESVTEQDSKDSTYSLSSTLTLSKADYEKHKVYACEVTHQGLSSPVTKSFNRGEC
notes: Alteration in both H chains; also called Ho Ab P271_10E
B2: GpH7-B3 variant P271_18N/GpL16-k0 (antibody, human IgG1, kappa)
heavy: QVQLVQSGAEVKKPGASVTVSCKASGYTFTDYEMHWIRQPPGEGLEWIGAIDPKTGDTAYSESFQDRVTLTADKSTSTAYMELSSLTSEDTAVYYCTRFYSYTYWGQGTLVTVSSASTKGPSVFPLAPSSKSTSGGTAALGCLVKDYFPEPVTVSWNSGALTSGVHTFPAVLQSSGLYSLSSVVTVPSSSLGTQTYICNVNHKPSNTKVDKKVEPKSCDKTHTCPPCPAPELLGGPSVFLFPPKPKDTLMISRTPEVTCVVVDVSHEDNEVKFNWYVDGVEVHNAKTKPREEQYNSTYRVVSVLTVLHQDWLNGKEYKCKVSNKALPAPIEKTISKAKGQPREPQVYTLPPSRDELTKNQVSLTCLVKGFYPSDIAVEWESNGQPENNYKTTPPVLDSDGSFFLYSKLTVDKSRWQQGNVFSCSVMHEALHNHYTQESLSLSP
light: DIVMTQSPLSLPVTPGEPASISCQASESLVHSNRNTYLHWYLQKPGQSPQLLIYKVSNRFSGVPDRFSGSGSGTDFTLKISRVEAEDVGVYYCSQNTHVPPTFGQGTKVEIERTVAAPSVFIFPPSDEQLKSGTASVVCLLNNFYPREAKVQWKVDNALQSGNSQESVTEQDSKDSTYSLSSTLTLSKADYEKHKVYACEVTHQGLSSPVTKSFNRGEC
notes: Alteration in both H chains; also called Ho Ab P271_18N
B3: GpH7-B3 variant P271_19Q/GpL16-k0 (antibody, human IgG1, kappa)
heavy: not shown
light: DIVMTQSPLSLPVTPGEPASISCQASESLVHSNRNTYLHWYLQKPGQSPQLLIYKVSNRFSGVPDRFSGSGSGTDFTLKISRVEAEDVGVYYCSQNTHVPPTFGQGTKVEIERTVAAPSVFIFPPSDEQLKSGTASVVCLLNNFYPREAKVQWKVDNALQSGNSQESVTEQDSKDSTYSLSSTLTLSKADYEKHKVYACEVTHQGLSSPVTKSFNRGEC
notes: Alteration in both H chains; also called Ho Ab P271_19Q
B4: GpH7-B3 variant Q295_10E/GpL16-k0 (antibody, human IgG1, kappa)
heavy: not shown
light: DIVMTQSPLSLPVTPGEPASISCQASESLVHSNRNTYLHWYLQKPGQSPQLLIYKVSNRFSGVPDRFSGSGSGTDFTLKISRVEAEDVGVYYCSQNTHVPPTFGQGTKVEIERTVAAPSVFIFPPSDEQLKSGTASVVCLLNNFYPREAKVQWKVDNALQSGNSQESVTEQDSKDSTYSLSSTLTLSKADYEKHKVYACEVTHQGLSSPVTKSFNRGEC
notes: Alteration in both H chains; also called Ho Ab Q295_10E
B5: GpH7-B3 variant Q295_12R/GpL16-k0 (antibody, human IgG1, kappa)
heavy: not shown
light: DIVMTQSPLSLPVTPGEPASISCQASESLVHSNRNTYLHWYLQKPGQSPQLLIYKVSNRFSGVPDRFSGSGSGTDFTLKISRVEAEDVGVYYCSQNTHVPPTFGQGTKVEIERTVAAPSVFIFPPSDEQLKSGTASVVCLLNNFYPREAKVQWKVDNALQSGNSQESVTEQDSKDSTYSLSSTLTLSKADYEKHKVYACEVTHQGLSSPVTKSFNRGEC
notes: Alteration in both H chains; also called Ho Ab Q295_12R
B6: GpH7-B3 variant S239_10E/GpL16-k0 (antibody, human IgG1, kappa)
heavy: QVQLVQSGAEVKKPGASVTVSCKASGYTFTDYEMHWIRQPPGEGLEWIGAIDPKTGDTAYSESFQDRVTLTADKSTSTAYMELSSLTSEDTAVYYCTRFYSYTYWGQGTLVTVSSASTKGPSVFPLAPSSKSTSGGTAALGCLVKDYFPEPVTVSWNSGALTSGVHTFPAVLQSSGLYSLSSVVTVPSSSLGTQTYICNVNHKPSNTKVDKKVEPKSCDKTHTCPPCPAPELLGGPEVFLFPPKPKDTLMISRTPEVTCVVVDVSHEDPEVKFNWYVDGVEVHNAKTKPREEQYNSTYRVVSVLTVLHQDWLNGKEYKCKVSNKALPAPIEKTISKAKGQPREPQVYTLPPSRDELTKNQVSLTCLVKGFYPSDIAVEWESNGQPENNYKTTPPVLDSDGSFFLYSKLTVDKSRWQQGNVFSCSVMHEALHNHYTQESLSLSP
light: DIVMTQSPLSLPVTPGEPASISCQASESLVHSNRNTYLHWYLQKPGQSPQLLIYKVSNRFSGVPDRFSGSGSGTDFTLKISRVEAEDVGVYYCSQNTHVPPTFGQGTKVEIERTVAAPSVFIFPPSDEQLKSGTASVVCLLNNFYPREAKVQWKVDNALQSGNSQESVTEQDSKDSTYSLSSTLTLSKADYEKHKVYACEVTHQGLSSPVTKSFNRGEC
notes: Alteration in both H chains; also called Ho Ab S239_10E
B7: GpH7-B3 variant S267_06M/GpL16-k0 (antibody, human IgG1, kappa)
heavy: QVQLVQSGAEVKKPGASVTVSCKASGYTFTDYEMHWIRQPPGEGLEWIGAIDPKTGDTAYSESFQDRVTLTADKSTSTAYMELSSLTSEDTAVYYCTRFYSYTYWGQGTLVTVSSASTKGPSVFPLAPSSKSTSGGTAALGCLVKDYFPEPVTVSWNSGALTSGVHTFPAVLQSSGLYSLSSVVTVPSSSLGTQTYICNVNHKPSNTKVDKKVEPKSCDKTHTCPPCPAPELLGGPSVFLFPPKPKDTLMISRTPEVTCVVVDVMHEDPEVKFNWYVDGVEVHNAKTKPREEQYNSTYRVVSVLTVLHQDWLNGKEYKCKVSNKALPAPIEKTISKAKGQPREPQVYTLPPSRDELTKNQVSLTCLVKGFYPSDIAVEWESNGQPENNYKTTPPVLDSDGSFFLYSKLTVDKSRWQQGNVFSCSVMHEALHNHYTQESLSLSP
light: DIVMTQSPLSLPVTPGEPASISCQASESLVHSNRNTYLHWYLQKPGQSPQLLIYKVSNRFSGVPDRFSGSGSGTDFTLKISRVEAEDVGVYYCSQNTHVPPTFGQGTKVEIERTVAAPSVFIFPPSDEQLKSGTASVVCLLNNFYPREAKVQWKVDNALQSGNSQESVTEQDSKDSTYSLSSTLTLSKADYEKHKVYACEVTHQGLSSPVTKSFNRGEC
notes: Alteration in both H chains; also called Ho Ab S267_06M
B8: GpH7-B3 variant S267_10E/GpL16-k0 (antibody, human IgG1, kappa)
heavy: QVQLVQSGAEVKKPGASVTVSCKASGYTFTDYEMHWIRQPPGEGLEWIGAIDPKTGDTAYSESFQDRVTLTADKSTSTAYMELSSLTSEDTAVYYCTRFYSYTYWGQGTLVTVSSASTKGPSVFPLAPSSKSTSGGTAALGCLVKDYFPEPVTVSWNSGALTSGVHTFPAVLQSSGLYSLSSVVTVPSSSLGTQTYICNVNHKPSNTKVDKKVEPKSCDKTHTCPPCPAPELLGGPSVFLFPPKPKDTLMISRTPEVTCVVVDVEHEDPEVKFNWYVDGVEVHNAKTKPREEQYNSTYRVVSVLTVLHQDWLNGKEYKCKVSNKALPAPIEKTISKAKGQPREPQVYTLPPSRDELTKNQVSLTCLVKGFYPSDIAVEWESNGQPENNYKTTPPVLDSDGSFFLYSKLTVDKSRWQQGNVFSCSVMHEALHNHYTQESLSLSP
light: DIVMTQSPLSLPVTPGEPASISCQASESLVHSNRNTYLHWYLQKPGQSPQLLIYKVSNRFSGVPDRFSGSGSGTDFTLKISRVEAEDVGVYYCSQNTHVPPTFGQGTKVEIERTVAAPSVFIFPPSDEQLKSGTASVVCLLNNFYPREAKVQWKVDNALQSGNSQESVTEQDSKDSTYSLSSTLTLSKADYEKHKVYACEVTHQGLSSPVTKSFNRGEC
notes: Alteration in both H chains; also called Ho Ab S267_10E
B9: GpH7-B3 variant S267_14T/GpL16-k0 (antibody, human IgG1, kappa)
heavy: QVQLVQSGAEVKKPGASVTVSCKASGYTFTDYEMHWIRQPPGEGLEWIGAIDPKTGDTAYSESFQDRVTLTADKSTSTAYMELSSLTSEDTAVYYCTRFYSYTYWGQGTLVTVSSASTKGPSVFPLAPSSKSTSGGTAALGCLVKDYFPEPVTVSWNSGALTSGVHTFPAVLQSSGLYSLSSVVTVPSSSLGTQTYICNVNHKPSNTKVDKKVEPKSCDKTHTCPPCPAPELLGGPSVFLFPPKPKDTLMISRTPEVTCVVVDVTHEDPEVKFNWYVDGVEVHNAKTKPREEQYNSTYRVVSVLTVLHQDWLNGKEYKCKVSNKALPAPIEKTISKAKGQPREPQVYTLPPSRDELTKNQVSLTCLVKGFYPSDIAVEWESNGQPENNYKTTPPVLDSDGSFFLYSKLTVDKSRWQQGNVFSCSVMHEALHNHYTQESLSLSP
light: DIVMTQSPLSLPVTPGEPASISCQASESLVHSNRNTYLHWYLQKPGQSPQLLIYKVSNRFSGVPDRFSGSGSGTDFTLKISRVEAEDVGVYYCSQNTHVPPTFGQGTKVEIERTVAAPSVFIFPPSDEQLKSGTASVVCLLNNFYPREAKVQWKVDNALQSGNSQESVTEQDSKDSTYSLSSTLTLSKADYEKHKVYACEVTHQGLSSPVTKSFNRGEC
notes: Alteration in both H chains; also called Ho Ab S267_14T
B10: GpH7-B3 variant S267_18N/GpL16-k0 (antibody, human IgG1, kappa)
heavy: not shown
light: DIVMTQSPLSLPVTPGEPASISCQASESLVHSNRNTYLHWYLQKPGQSPQLLIYKVSNRFSGVPDRFSGSGSGTDFTLKISRVEAEDVGVYYCSQNTHVPPTFGQGTKVEIERTVAAPSVFIFPPSDEQLKSGTASVVCLLNNFYPREAKVQWKVDNALQSGNSQESVTEQDSKDSTYSLSSTLTLSKADYEKHKVYACEVTHQGLSSPVTKSFNRGEC
notes: Alteration in both H chains; also called Ho Ab S267_18N
B11: GpH7-B3 variant S267_19Q/GpL16-k0 (antibody, human IgG1, kappa)
heavy: not shown
light: DIVMTQSPLSLPVTPGEPASISCQASESLVHSNRNTYLHWYLQKPGQSPQLLIYKVSNRFSGVPDRFSGSGSGTDFTLKISRVEAEDVGVYYCSQNTHVPPTFGQGTKVEIERTVAAPSVFIFPPSDEQLKSGTASVVCLLNNFYPREAKVQWKVDNALQSGNSQESVTEQDSKDSTYSLSSTLTLSKADYEKHKVYACEVTHQGLSSPVTKSFNRGEC
notes: Alteration in both H chains; also called Ho Ab S267_19Q
B12: GpH7-B3 variant S298_09D/GpL16-k0 (antibody, human IgG1, kappa)
heavy: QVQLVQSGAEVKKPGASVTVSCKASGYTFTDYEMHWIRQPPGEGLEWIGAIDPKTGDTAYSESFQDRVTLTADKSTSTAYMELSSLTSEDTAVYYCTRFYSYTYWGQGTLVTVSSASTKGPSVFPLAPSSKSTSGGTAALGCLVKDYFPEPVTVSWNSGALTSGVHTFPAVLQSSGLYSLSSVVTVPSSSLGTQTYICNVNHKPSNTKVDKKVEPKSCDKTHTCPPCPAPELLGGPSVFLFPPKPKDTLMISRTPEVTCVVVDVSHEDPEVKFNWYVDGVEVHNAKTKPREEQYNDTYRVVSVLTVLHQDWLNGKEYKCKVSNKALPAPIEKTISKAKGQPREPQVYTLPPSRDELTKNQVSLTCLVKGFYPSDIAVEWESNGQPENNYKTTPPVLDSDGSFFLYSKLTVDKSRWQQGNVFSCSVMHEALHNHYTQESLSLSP
light: DIVMTQSPLSLPVTPGEPASISCQASESLVHSNRNTYLHWYLQKPGQSPQLLIYKVSNRFSGVPDRFSGSGSGTDFTLKISRVEAEDVGVYYCSQNTHVPPTFGQGTKVEIERTVAAPSVFIFPPSDEQLKSGTASVVCLLNNFYPREAKVQWKVDNALQSGNSQESVTEQDSKDSTYSLSSTLTLSKADYEKHKVYACEVTHQGLSSPVTKSFNRGEC
notes: Alteration in both H chains; also called Ho Ab S298_09D
B13: GpH7-B3 variant S324_09D/GpL16-k0 (antibody, human IgG1, kappa)
heavy: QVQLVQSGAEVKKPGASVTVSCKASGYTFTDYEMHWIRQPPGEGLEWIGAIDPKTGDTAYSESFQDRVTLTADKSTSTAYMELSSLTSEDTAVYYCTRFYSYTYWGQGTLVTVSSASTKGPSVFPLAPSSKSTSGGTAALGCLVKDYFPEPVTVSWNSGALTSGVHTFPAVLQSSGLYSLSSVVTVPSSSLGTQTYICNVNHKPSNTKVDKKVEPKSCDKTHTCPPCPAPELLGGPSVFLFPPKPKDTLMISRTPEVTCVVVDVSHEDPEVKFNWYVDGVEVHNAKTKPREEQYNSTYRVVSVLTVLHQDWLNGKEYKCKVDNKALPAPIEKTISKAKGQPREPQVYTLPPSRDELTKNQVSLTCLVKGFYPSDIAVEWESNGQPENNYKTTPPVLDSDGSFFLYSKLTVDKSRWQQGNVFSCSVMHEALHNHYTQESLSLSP
light: DIVMTQSPLSLPVTPGEPASISCQASESLVHSNRNTYLHWYLQKPGQSPQLLIYKVSNRFSGVPDRFSGSGSGTDFTLKISRVEAEDVGVYYCSQNTHVPPTFGQGTKVEIERTVAAPSVFIFPPSDEQLKSGTASVVCLLNNFYPREAKVQWKVDNALQSGNSQESVTEQDSKDSTYSLSSTLTLSKADYEKHKVYACEVTHQGLSSPVTKSFNRGEC
notes: Alteration in both H chains; also called Ho Ab S324_09D
B14: GpH7-B3 variant S324_10E/GpL16-k0 (antibody, human IgG1, kappa)
heavy: not shown
light: DIVMTQSPLSLPVTPGEPASISCQASESLVHSNRNTYLHWYLQKPGQSPQLLIYKVSNRFSGVPDRFSGSGSGTDFTLKISRVEAEDVGVYYCSQNTHVPPTFGQGTKVEIERTVAAPSVFIFPPSDEQLKSGTASVVCLLNNFYPREAKVQWKVDNALQSGNSQESVTEQDSKDSTYSLSSTLTLSKADYEKHKVYACEVTHQGLSSPVTKSFNRGEC
notes: Alteration in both H chains; also called Ho Ab S324_10E
B15: GpH7-B3 variant S337_11K/GpL16-k0 (antibody, human IgG1, kappa)
heavy: not shown
light: DIVMTQSPLSLPVTPGEPASISCQASESLVHSNRNTYLHWYLQKPGQSPQLLIYKVSNRFSGVPDRFSGSGSGTDFTLKISRVEAEDVGVYYCSQNTHVPPTFGQGTKVEIERTVAAPSVFIFPPSDEQLKSGTASVVCLLNNFYPREAKVQWKVDNALQSGNSQESVTEQDSKDSTYSLSSTLTLSKADYEKHKVYACEVTHQGLSSPVTKSFNRGEC
notes: Alteration in both H chains; also called Ho Ab S337_11K
B16: GpH7-B3 variant S337_14T/GpL16-k0 (antibody, human IgG1, kappa)
heavy: not shown
light: DIVMTQSPLSLPVTPGEPASISCQASESLVHSNRNTYLHWYLQKPGQSPQLLIYKVSNRFSGVPDRFSGSGSGTDFTLKISRVEAEDVGVYYCSQNTHVPPTFGQGTKVEIERTVAAPSVFIFPPSDEQLKSGTASVVCLLNNFYPREAKVQWKVDNALQSGNSQESVTEQDSKDSTYSLSSTLTLSKADYEKHKVYACEVTHQGLSSPVTKSFNRGEC
notes: Alteration in both H chains; also called Ho Ab S337_14T
B17: GpH7-B3 variant S337_16H/GpL16-k0 (antibody, human IgG1, kappa)
heavy: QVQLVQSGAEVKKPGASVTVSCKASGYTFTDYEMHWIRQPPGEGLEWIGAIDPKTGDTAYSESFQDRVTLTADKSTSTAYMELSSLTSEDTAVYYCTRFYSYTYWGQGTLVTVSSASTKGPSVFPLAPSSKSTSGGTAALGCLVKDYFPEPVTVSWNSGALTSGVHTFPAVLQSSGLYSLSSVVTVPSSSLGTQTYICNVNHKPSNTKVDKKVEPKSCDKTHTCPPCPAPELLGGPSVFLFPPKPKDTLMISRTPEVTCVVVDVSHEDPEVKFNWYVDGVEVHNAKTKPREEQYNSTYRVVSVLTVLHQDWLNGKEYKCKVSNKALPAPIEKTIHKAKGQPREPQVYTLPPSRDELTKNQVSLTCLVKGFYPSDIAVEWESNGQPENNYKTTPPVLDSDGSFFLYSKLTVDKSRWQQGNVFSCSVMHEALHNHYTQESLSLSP
light: DIVMTQSPLSLPVTPGEPASISCQASESLVHSNRNTYLHWYLQKPGQSPQLLIYKVSNRFSGVPDRFSGSGSGTDFTLKISRVEAEDVGVYYCSQNTHVPPTFGQGTKVEIERTVAAPSVFIFPPSDEQLKSGTASVVCLLNNFYPREAKVQWKVDNALQSGNSQESVTEQDSKDSTYSLSSTLTLSKADYEKHKVYACEVTHQGLSSPVTKSFNRGEC
notes: Alteration in both H chains; also called Ho Ab S337_16H
B18: GpH7-B3 variant S337_18N/GpL16-k0 (antibody, human IgG1, kappa)
heavy: not shown
light: DIVMTQSPLSLPVTPGEPASISCQASESLVHSNRNTYLHWYLQKPGQSPQLLIYKVSNRFSGVPDRFSGSGSGTDFTLKISRVEAEDVGVYYCSQNTHVPPTFGQGTKVEIERTVAAPSVFIFPPSDEQLKSGTASVVCLLNNFYPREAKVQWKVDNALQSGNSQESVTEQDSKDSTYSLSSTLTLSKADYEKHKVYACEVTHQGLSSPVTKSFNRGEC
notes: Alteration in both H chains; also called Ho Ab S337_18N
B19: GpH7-B3 variant T335_01G/GpL16-k0 (antibody, human IgG1, kappa)
heavy: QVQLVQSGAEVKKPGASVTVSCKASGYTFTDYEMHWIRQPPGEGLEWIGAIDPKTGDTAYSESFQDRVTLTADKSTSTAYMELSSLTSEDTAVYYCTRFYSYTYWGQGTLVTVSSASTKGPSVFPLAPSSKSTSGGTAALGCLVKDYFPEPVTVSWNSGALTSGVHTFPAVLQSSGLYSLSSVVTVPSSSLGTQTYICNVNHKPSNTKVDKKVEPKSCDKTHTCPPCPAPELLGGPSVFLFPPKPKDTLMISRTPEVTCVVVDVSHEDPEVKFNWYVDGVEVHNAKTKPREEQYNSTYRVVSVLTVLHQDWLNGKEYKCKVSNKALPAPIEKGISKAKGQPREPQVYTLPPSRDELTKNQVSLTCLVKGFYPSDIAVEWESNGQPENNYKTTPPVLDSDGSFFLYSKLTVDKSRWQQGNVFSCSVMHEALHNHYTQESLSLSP
light: DIVMTQSPLSLPVTPGEPASISCQASESLVHSNRNTYLHWYLQKPGQSPQLLIYKVSNRFSGVPDRFSGSGSGTDFTLKISRVEAEDVGVYYCSQNTHVPPTFGQGTKVEIERTVAAPSVFIFPPSDEQLKSGTASVVCLLNNFYPREAKVQWKVDNALQSGNSQESVTEQDSKDSTYSLSSTLTLSKADYEKHKVYACEVTHQGLSSPVTKSFNRGEC
notes: Alteration in both H chains; also called Ho Ab T335_01G
B20: GpH7-B3 variant T335_02A/GpL16-k0 (antibody, human IgG1, kappa)
heavy: not shown
light: DIVMTQSPLSLPVTPGEPASISCQASESLVHSNRNTYLHWYLQKPGQSPQLLIYKVSNRFSGVPDRFSGSGSGTDFTLKISRVEAEDVGVYYCSQNTHVPPTFGQGTKVEIERTVAAPSVFIFPPSDEQLKSGTASVVCLLNNFYPREAKVQWKVDNALQSGNSQESVTEQDSKDSTYSLSSTLTLSKADYEKHKVYACEVTHQGLSSPVTKSFNRGEC
notes: Alteration in both H chains; also called Ho Ab T335_02A
B21: GpH7-B3 variant T335_13S/GpL16-k0 (antibody, human IgG1, kappa)
heavy: not shown
light: DIVMTQSPLSLPVTPGEPASISCQASESLVHSNRNTYLHWYLQKPGQSPQLLIYKVSNRFSGVPDRFSGSGSGTDFTLKISRVEAEDVGVYYCSQNTHVPPTFGQGTKVEIERTVAAPSVFIFPPSDEQLKSGTASVVCLLNNFYPREAKVQWKVDNALQSGNSQESVTEQDSKDSTYSLSSTLTLSKADYEKHKVYACEVTHQGLSSPVTKSFNRGEC
notes: Alteration in both H chains; also called Ho Ab T335_13S
B22: GpH7-B3 variant Y296_02A/GpL16-k0 (antibody, human IgG1, kappa)
heavy: not shown
light: DIVMTQSPLSLPVTPGEPASISCQASESLVHSNRNTYLHWYLQKPGQSPQLLIYKVSNRFSGVPDRFSGSGSGTDFTLKISRVEAEDVGVYYCSQNTHVPPTFGQGTKVEIERTVAAPSVFIFPPSDEQLKSGTASVVCLLNNFYPREAKVQWKVDNALQSGNSQESVTEQDSKDSTYSLSSTLTLSKADYEKHKVYACEVTHQGLSSPVTKSFNRGEC
notes: Alteration in both H chains; also called Ho Ab Y296_02A

target: T1, FcγRIa (human, UniProt P12314 16-292); experiment: SPR (Biacore), relative binding; control HoCon Ab GpH7-B3/GpL16-k0
T1 construct: extracellular domain; also called FcgRI; FcgRIa; not shown: His tag attached to the C terminus
T1 sequence (P12314 16-292): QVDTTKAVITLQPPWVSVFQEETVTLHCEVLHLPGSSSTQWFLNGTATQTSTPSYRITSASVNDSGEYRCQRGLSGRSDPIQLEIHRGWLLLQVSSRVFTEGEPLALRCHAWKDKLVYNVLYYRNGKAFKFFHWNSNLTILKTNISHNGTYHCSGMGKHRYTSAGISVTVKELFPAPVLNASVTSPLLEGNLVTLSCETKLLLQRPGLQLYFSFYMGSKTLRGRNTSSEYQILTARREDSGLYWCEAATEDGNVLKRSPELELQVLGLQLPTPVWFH

Ho/Con_1a, 105 % of control (=100):
B4
B15
B17
B20
B21

Ho/Con_1a, 106 % of control (=100):
B6
B7
B12
B13
B14
B16
B18
B19

Ho/Con_1a, 104 % of control (=100):
B3
B11

Ho/Con_1a, 107 % of control (=100):
B8
B9
B10

Ho/Con_1a, 101 % of control (=100):
B5

Ho/Con_1a, 103 % of control (=100):
B1
B2
B22

From patent publication US20150344570A1 (published 2015)
